We go through 11 molecules from US5885797, “Polynucleotide sequences encoding proteins involved in myogenesis” (Fred Hutchinson Cancer Research Center, dated 1999).

Where only a bound is given, the exact number is not on record here.

Assay [1] has as its target T1, Lethal of Scute (AS-C T3) (Drosophila melanogaster (Fruit fly), UniProt P09774).
T1 sequence: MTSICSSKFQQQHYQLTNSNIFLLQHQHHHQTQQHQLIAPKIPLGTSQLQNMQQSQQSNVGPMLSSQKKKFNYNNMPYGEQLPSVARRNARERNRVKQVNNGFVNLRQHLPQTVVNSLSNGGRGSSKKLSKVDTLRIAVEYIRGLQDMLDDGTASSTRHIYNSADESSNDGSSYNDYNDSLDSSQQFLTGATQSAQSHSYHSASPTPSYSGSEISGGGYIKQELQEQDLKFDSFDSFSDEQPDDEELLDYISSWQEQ
The assay can be described thus: yeast one-hybrid, strain L40, β-galactosidase reporter.

Assay [2] deals with T2, Myogenin (full length, mouse) (mouse, UniProt P12979). Described as above.
Assay [3] addresses T1, Lethal of Scute (AS-C T3). The description is as above. The source holds these as a separate data set.
In another assay the target is T3, VP16-I-mfc (mouse).
T3 chain: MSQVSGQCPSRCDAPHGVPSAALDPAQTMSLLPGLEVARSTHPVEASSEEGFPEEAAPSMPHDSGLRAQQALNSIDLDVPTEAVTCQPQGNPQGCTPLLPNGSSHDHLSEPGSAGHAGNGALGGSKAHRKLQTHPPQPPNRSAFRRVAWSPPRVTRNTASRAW
The assay can be described thus: yeast hybrid assay, strain L40, β-galactosidase reporter.

Assay [4] addresses MyoD (full length, mouse) (mouse, UniProt P10085). In words: cell-based or functional assay.
For assay [5], the target named is T4, Myf5 (full length, mouse) (mouse, UniProt P24699). The assay can be described thus: cell-based or functional assay.
For assay [6], the target named is T2, Myogenin (full length, mouse). The assay can be described thus: cell-based or functional assay.
For assay [7], the target named is T4, Myf5 (full length, mouse). In words: yeast one-hybrid, strain L40, β-galactosidase reporter.
For the next assay, the target named is T5, VP16-I-mfb (mouse).
T5 chain: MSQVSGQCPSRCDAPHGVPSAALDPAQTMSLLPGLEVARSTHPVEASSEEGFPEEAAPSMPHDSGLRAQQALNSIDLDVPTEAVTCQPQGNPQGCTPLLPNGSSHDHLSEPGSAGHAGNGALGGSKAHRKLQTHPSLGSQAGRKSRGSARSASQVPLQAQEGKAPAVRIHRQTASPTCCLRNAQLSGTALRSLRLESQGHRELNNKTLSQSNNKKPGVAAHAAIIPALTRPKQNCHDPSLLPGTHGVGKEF
The assay can be described thus: yeast hybrid assay, strain L40, β-galactosidase reporter.

Assay [8] addresses T4, Myf5 (full length, mouse). The description is as above.
The target in assay [9] is T4, Myf5 (full length, mouse). In words: column 'Interaction with Myf5' of Table 4 (yeast hybrid assay of Table 3).

B1: LexA-I-mfb (other)
chain: MKALTARQQEVFDLIRDHISQTGMPPTRAEIAQRLGFRSPNAAEEHLKALARKGVIEIVSGASRGIRLLQEEEEGLPLVGRVAAGEPLLAQQHIEGHYQVDPSLFKPNADFLLRVSGMSMKDIGIMDGDLLAVHKTQDVRNGQVVVARIDDEVTVKRLKKQGNKVELLPENSEFKPIVVDLRQQSFTIEGLAVGVIRNGDWLMSQVSGQCPSRCDAPHGVPSAALDPAQTMSLLPGLEVARSTHPVEASSEEGFPEEAAPSMPHDSGLRAQQALNSIDLDVPTEAVTCQPQGNPQGCTPLLPNGSSHDHLSEPGSAGHAGNGALGGSKAHRKLQTHPSLGSQAGRKSRGSARSASQVPLQAQEGKAPAVRIHRQTASPTCCLRNAQLSGTALRSLRLESQGHRELNNKTLSQSNNKKPGVAAHAAIIPALTRPKQNCHDPSLLPGTHGVGKEF
B1: in assay [1], the binding result is reported as “no binding”. Besides, the results for the β-galactosidase activity (in [2]; in assay [3]; with VP16-I-mfc) were 0.4 arbitrary units, 0.9 arbitrary units and below 0.1 arbitrary units, respectively.

B2: LexA (other)
chain: MKALTARQQEVFDLIRDHISQTGMPPTRAEIAQRLGFRSPNAAEEHLKALARKGVIEIVSGASRGIRLLQEEEEGLPLVGRVAAGEPLLAQQHIEGHYQVDPSLFKPNADFLLRVSGMSMKDIGIMDGDLLAVHKTQDVRNGQVVVARIDDEVTVKRLKKQGNKVELLPENSEFKPIVVDLRQQSFTIEGLAVGVIRNGDWL
In turn, B2 gave a β-galactosidase activity in assay [2] of 0.6 arbitrary units.

B3: I-mfa (other)
chain: MSQVSGQCPSRCDAPHGVPSAALDPAQTMSLLPGLEVARSTHPVEASSEEGFPEEAAPSMPHDSGLRAQQALNSIDLDVPTEAVTCQPQGNPQGCTPLLPNGSSHDHLSEPGSAGHAGNGALGGSKAHRKLQTHPSLGSQAGRKSRGSARSASQVPLQAQEDCCVHCILSCLFCEFLTLCNILLDCATCGSCSSEDSCLCCCCCGSGECADCDLPCDLDCGIVDACCESADCLEICMECCGLCFSS
Regarding B3, the “Relative CAT Activity (%), 4RCAT (10T/2 cells)” value (“Relative CAT Activity (%), 4RCAT” for short) is 56% in assay [4] and 13% in assay [5]. The “Relative CAT Activity (%), MCK-CAT (NIH3T3 cells)” value (“Relative CAT Activity (%), MCK-CAT” for short) worked out at 27% in [4], 9% in [5] and 2% in assay [6].

B4: LexA-I-mfc (other)
chain: MKALTARQQEVFDLIRDHISQTGMPPTRAEIAQRLGFRSPNAAEEHLKALARKGVIEIVSGASRGIRLLQEEEEGLPLVGRVAAGEPLLAQQHIEGHYQVDPSLFKPNADFLLRVSGMSMKDIGIMDGDLLAVHKTQDVRNGQVVVARIDDEVTVKRLKKQGNKVELLPENSEFKPIVVDLRQQSFTIEGLAVGVIRNGDWLMSQVSGQCPSRCDAPHGVPSAALDPAQTMSLLPGLEVARSTHPVEASSEEGFPEEAAPSMPHDSGLRAQQALNSIDLDVPTEAVTCQPQGNPQGCTPLLPNGSSHDHLSEPGSAGHAGNGALGGSKAHRKLQTHPPQPPNRSAFRRVAWSPPRVTRNTASRAW
B4: the β-galactosidase activity is 0.4 arbitrary units in assay [7], 0.3 arbitrary units in assay [2], below 0.1 arbitrary units with VP16-I-mfb and below 0.1 arbitrary units in assay [8]. In assay [9], the binding result is listed as “no binding”.

B5: I-mfc (other)
chain: T3 chain
Consider B5, for which the “Relative CAT Activity (%), 4RCAT” value came out at 100% in [4] and 101% in assay [5]. The entries for the “Relative CAT Activity (%), MCK-CAT” value in assay [4], in assay [5] and in assay [6] were 100%, 106% and 111%, respectively.

B6: I-mfb (other)
chain: T5 chain
For the molecule B6, the “Relative CAT Activity (%), 4RCAT” value in [4] is 95%; in [5], 105%. In addition, the “Relative CAT Activity (%), MCK-CAT” value in [4] was determined as 87%; in [5], 132%; in assay [6], 101%.

B7: LexA-I-mfa (other)
chain: MKALTARQQEVFDLIRDHISQTGMPPTRAEIAQRLGFRSPNAAEEHLKALARKGVIEIVSGASRGIRLLQEEEEGLPLVGRVAAGEPLLAQQHIEGHYQVDPSLFKPNADFLLRVSGMSMKDIGIMDGDLLAVHKTQDVRNGQVVVARIDDEVTVKRLKKQGNKVELLPENSEFKPIVVDLRQQSFTIEGLAVGVIRNGDWLMSQVSGQCPSRCDAPHGVPSAALDPAQTMSLLPGLEVARSTHPVEASSEEGFPEEAAPSMPHDSGLRAQQALNSIDLDVPTEAVTCQPQGNPQGCTPLLPNGSSHDHLSEPGSAGHAGNGALGGSKAHRKLQTHPSLGSQAGRKSRGSARSASQVPLQAQEDCCVHCILSCLFCEFLTLCNILLDCATCGSCSSEDSCLCCCCCGSGECADCDLPCDLDCGIVDACCESADCLEICMECCGLCFSS
With B7, the results for the β-galactosidase activity with VP16-I-mfb and with VP16-I-mfc were 0.7 arbitrary units and 0.5 arbitrary units, respectively.

B8: LexA-I-mfa (29-246) (other)
chain: MSLLPGLEVARSTHPVEASSEEGFPEEAAPSMPHDSGLRAQQALNSIDLDVPTEAVTCQPQGNPQGCTPLLPNGSSHDHLSEPGSAGHAGNGALGGSKAHRKLQTHPSLGSQAGRKSRGSARSASQVPLQAQEDCCVHCILSCLFCEFLTLCNILLDCATCGSCSSEDSCLCCCCCGSGECADCDLPCDLDCGIVDACCESADCLEICMECCGLCFSS
Consider B8, for which the β-galactosidase activity in the assay with VP16-I-mfb came to 0.7 arbitrary units; with VP16-I-mfc it was 0.8 arbitrary units.

B9: LexA-I-mfa (87-246) (other)
chain: QPQGNPQGCTPLLPNGSSHDHLSEPGSAGHAGNGALGGSKAHRKLQTHPSLGSQAGRKSRGSARSASQVPLQAQEDCCVHCILSCLFCEFLTLCNILLDCATCGSCSSEDSCLCCCCCGSGECADCDLPCDLDCGIVDACCESADCLEICMECCGLCFSS
Consider B9, for which the β-galactosidase activity in the assay with VP16-I-mfb turned out to be 0.6 arbitrary units.

B10: LexA-I-mfa (87-202) (other)
chain: QPQGNPQGCTPLLPNGSSHDHLSEPGSAGHAGNGALGGSKAHRKLQTHPSLGSQAGRKSRGSARSASQVPLQAQEDCCVHCILSCLFCEFLTLCNILLDCATCGSCSSEDSCLCCC
For B10, the values for the β-galactosidase activity with VP16-I-mfb and in the assay with VP16-I-mfc were 0.2 arbitrary units and below 0.1 arbitrary units, respectively.

B11: LexA-I-mfa (1-202) (other)
chain: MSQVSGQCPSRCDAPHGVPSAALDPAQTMSLLPGLEVARSTHPVEASSEEGFPEEAAPSMPHDSGLRAQQALNSIDLDVPTEAVTCQPQGNPQGCTPLLPNGSSHDHLSEPGSAGHAGNGALGGSKAHRKLQTHPSLGSQAGRKSRGSARSASQVPLQAQEDCCVHCILSCLFCEFLTLCNILLDCATCGSCSSEDSCLCCC
Consider B11, for which the β-galactosidase activity in the assay with VP16-I-mfb and with VP16-I-mfc was below 0.1 arbitrary units each time.
